Results taken from patent US9937265B2, “Self-assembling peptide and polysaccharide complexes” (University of Leeds, priority 2013, dated 2018).

Legend:
Format in all cases: physicochemical
[1] = Rheological study of peptide and peptide:glycosaminoglycan gels (amplitude and frequency sweeps); conditions: for G′ at 2 Hz 20 mg/ml / G″ at 2 Hz 20 mg/ml: 2 Hz (walking frequency); for G′ at 2 Hz 20 mg/ml / G″ at 2 Hz 20 mg/ml / plateau elastic modulus G′N°: 25° C.; for J, lower limit of the distance between nearest cross links: calculated from plateau elastic modulus by rubber-like elasticity theory, T=298K; for plateau elastic modulus G′N° / Phase angle: peptide gels in PBS at 20 mg/ml; for Phase angle: 25° C. (Table 2)
Protocol: Rheological Study of Peptide:Glycosaminoglycan Gels
Measurements were performed using a cone-plate geometry (cone angle: 1°, diameter: 50 mm, gap: 0.033 mm). All the tests were performed at 25° C., utilizing a solvent trap and the atmosphere within was kept saturated to minimize evaporation of the peptide samples. To ensure the measurements were made in the linear viscoelastic regime (LVER), amplitude sweeps were performed in a shear strain controlled mode from 0.01-100%. Two amplitude sweeps were carried out for each sample (1 Hz and 20 Hz) and a strain level was chosen at which the elastic modulus (G′) and viscous modulus (G″) were independent of strain amplitude at the two different frequency levels. The dynamic moduli of the hydrogels were measured as a frequency function with the sweeps carried out between 1 and 20 Hz. Samples were allowed to equilibrate for 15 minutes once loaded prior to the start of testing. Fresh samples were used for the amplitude and frequency sweeps. After the frequency sweeps, two more amplitude weeps (1 Hz and 20 Hz) were carried out in a stress controlled mode to confirm the testing was performed within the LVER. The stress range was chosen based on the stress values from the frequency sweeps at 1 and 20 Hz: if these two values were then independent of stress amplitude, then this confirmed that testing was within the LVER.
Tests were conducted to provide a peptide gel of similar stiffness to that of the nucleus pulposus. Rheometry was carried out on the peptide gels in PBS at 20 mg/ml. Amplitude sweeps were first carried out to determine the LVER region.
The rheological properties of the peptide:GAG samples were examined and compared to the rheological properties of peptides alone to establish how the addition of GAG affected the material properties of the gels. The frequency sweeps from the study (data not shown) for the various peptide:GAG combinations can be summarized as follows: P11-4: GAG and viscous modulus vs. frequency, starting frequency 1 Hz, end frequency: 20 Hz, strain controlled: 0.15% (control), 0.175% (1:2) and 0.04% (1:10). Temp: 25° C. 20 days old. P11-8:GAG elastic and viscous modulus vs. frequency, starting frequency 1 Hz, end frequency: 20 Hz, Strain controlled: 0.1% (1:2 and 1:10), Temp: 25° C., 1.5 months old. P11-9:GAG elastic and viscous modulus vs. frequency, starting frequency 1 Hz, end frequency: 20 Hz, Strain controlled: 0.5%, Temp: 25° C. P11-12:GAG Elastic and viscous modulus vs. frequency, starting frequency 1 Hz, end frequency: 20 Hz, Strain controlled: 0.25% (1:0.5), 0.1% (1:2), 0.05% (1:10), 0.15% (1:100), Temp: 25° C. 1:0.5, 1:2 and 1:10 2 months old and 1:100 6 days old. • P11-4: […]

[2] = High resolution 1H-NMR study of peptide self-assembly as a function of concentration and time (c*); conditions: for c*: critical concentration for aggregation, physiological-like solution, with GAG estimated from monomer level at ~5000 μM total peptide
Protocol: High Resolution ^1H-NMR Study of Peptide Self-Assembly as a Function of Concentration
(2,2,3,3-d4)-trimethylsilyl-3-propionic acid (TMSP, chemical shift 0 ppm) an internal reference standard was added to all peptide solutions. NMR data were acquired at room temperature. A pre-saturation program was used to minimize the water peak, and 1024 scans were measured per spectrum. Sample spectra were recorded at various time-points after preparation to ensure the solutions had reached stable equilibrium. The aromatic multiplet at chemical shift 6.9-7.8 ppm was integrated, relative to the reference peak.
High resolution solution ^1H NMR was used to follow the self-assembly of the peptides in physiological-like solutions as a function of time. To measure self-assembly, the line width broadening of the NMR spectra is exploited. The population of peptide in an aggregated state gives rise to spectra that are so broad that they are lost in the baseline; in contrast, the population of peptide in monomeric state gives rise to high resolution spectra. By integrating the splitting pattern arising from the aromatic region and normalising it with respect to the peak observed due to a known standard, the fraction of monomer can be estimated.

[3] = Visual observation of gelation of peptide and peptide:GAG samples (systematic mixing study); conditions: for Gel appearance: 20 mg/ml (Table 3); for Time to gel 20 mg/ml / time to form a self-supporting gel (gelation time) / self-assembly and gelation / Gel lifetime 20 mg/ml: 20 mg/ml peptide; for c*gel: peptide alone
Protocol: Preparation of Peptide Solutions
Solutions of peptides were prepared directly in either D2O or H2O containing either 130 or 200 mM NaCl or PBS. Peptide concentrations in the millimolar range given for the NMR studies were values multiplied by an appropriate factor to account for the actual percentage peptide content. The samples were vortexed for 20 seconds, and then sonicated for 15 minutes. Solution pD was measured and adjusted to either 7.4 or 6.0±0.5 using a calibrated pH meter and the relation pD =pH meter reading +0.417. Any adjustment of pD, if necessary, was made with minimal μL volumes of either HCl or DCl and/or either NaOH or NaOD. Finally, solution vials were closed, sealed with PTFE tape, and then warmed to approximately 80° C. to maximise peptide solubility. Solutions were left to equilibrate at room temperature.
Preparation of Peptide:Glycosaminoglycan Gels.
The concentration of peptide was kept constant for each sample (20 mg/ml) and the molar ratio of GAG subunit to one peptide was increased. The samples were named by the number of GAG subunits to each peptide present e.g. P11-12:GAG 1:10=one P11-12 peptide monomer to ten GAG dimer subunits. GAG was added to peptide solutions after preparation as stated above. The mixtures were vortexed as heated again to ensure complete mixing.
The effects of mixing chondroitin sulphate GAG with the peptides were investigated. It was hypothesised that the charged GAG chains would interact electrostatically with the charged peptides. To establish whether such an interaction was possible, visual observations of a systematic mixing study was carried out and the morphology of the aggregates formed during mixing studied using TEM. • P11-4: […]

[4] = Peptide dissolution from gel into supernatant (UV spectroscopy, 279 nm); conditions: at 3-4 days, 20 mg/ml gel
Protocol: 2.5 ml of 130 mM NaCl, D2O, pD 7.4 supernatant was added on top of the SAP:GAG gels. The concentration of peptide dissolved into the supernatant as a function of time was determined via UV spectroscopy. The UV wavelength of 279 nm corresponds to the […] of the tryptophan residue, found in position 6 of the SAP, and so this can be used to determine the molar concentration of the peptide taking into account the molar extinction coefficient of the tryptophan residue.

Row | Substance | G′ at 2 Hz 20 mg/ml [1] | G″ at 2 Hz 20 mg/ml [1] | c* [2] | Gel appearance [3] | Time to gel 20 mg/ml [3] | time to form a self-supporting gel (gelation time) [3] | gel state on storage ([3]; after a year) | c*gel [3] | self-assembly and gelation [3] | J, lower limit of the distance between nearest cross links [1] | plateau elastic modulus G′N° [1] | Phase angle [1] | Gel lifetime 20 mg/ml ([3]; yr and mths or words printed in the cell) | Gel lifetime 20 mg/ml ([3]; unit in cell beside) | gel stiffness / moduli compared, in words ([1]; frequency sweeps, compared with peptide alone or other gels) | time to reach equilibrium state of self-assembly ([2]; 1H NMR aromatic integral vs time, without GAG) | peptide dissolved from the gel [4]
1 | CH3CO-S-S-R-F-E-W-E-F-E-S-S-NH2 (Ac-SSRFEWEFESS-NH2) [Peptide P11-9] | 8 Pa | 5 Pa | 1160 ± 175 µM | Clear self- | minutes | minutes | still a self-supporting gel | 4500 ± 1500 µM |  |  |  |  |  |  |  |  | 
2 | CH3CO-Q-Q-O-F-O-W-O-F-O-Q-Q-NH2 (QQXFXWXFXQQ; HELM PEPTIDE1{[ac].Q.Q.[Orn].F.[Orn].W.[Orn].F.[Orn].Q.Q.[am]}$$$$V2.0; SMILES CC(=O)N[C@@H](CCC(N)=O)C(=O)N[C@@H](CCC(N)=O)C(=O)N[C@@H](CCCN)C(=O)N[C@@H](Cc1ccccc1)C(=O)N[C@@H](CCCN)C(=O)N[C@@H](Cc1c[nH]c2ccccc12)C(=O)N[C@@H](CCCN)C(=O)N[C@@H](Cc1ccccc1)C(=O)N[C@@H](CCCN)C(=O)N[C@@H](CCC(N)=O)C(=O)N[C@@H](CCC(N)=O)C(N)=O) [Peptide P11-14] |  |  | >3600 µM | Clear liquid | never |  |  |  | does not self-assemble |  |  |  |  |  |  |  | 
3 | CH3CO-Q-Q-R-F-O-W-O-F-E-Q-Q-NH2 (QQRFXWXFEQQ; HELM PEPTIDE1{[ac].Q.Q.R.F.[Orn].W.[Orn].F.E.Q.Q.[am]}$$$$V2.0; SMILES CC(=O)N[C@@H](CCC(N)=O)C(=O)N[C@@H](CCC(N)=O)C(=O)N[C@@H](CCCNC(=N)N)C(=O)N[C@@H](Cc1ccccc1)C(=O)N[C@@H](CCCN)C(=O)N[C@@H](Cc1c[nH]c2ccccc12)C(=O)N[C@@H](CCCN)C(=O)N[C@@H](Cc1ccccc1)C(=O)N[C@@H](CCC(=O)O)C(=O)N[C@@H](CCC(N)=O)C(=O)N[C@@H](CCC(N)=O)C(N)=O) [Peptide P11-8] | 4,881 Pa | 552 Pa | 400 ± 100 µM | Inhomogenous | days | days |  | 2000 ± 600 µM |  | 11.6 nm | 5,221 kg m^−1s^−2 | ~8° | Still some self- |  |  |  | 
4 | CH3CO-O-Q-O-F-O-W-O-F-O-Q-O-NH2 [Peptide P11-28] |  |  | >3100 µM | Clear liquid | never |  |  |  | does not self-assemble |  |  |  |  |  |  |  | 
5 | CH3CO-Q-Q-R-F-E-W-E-F-E-Q-Q-NH2 (Ac-QQRFEWEFEQQ-NH2) [Peptide P11-4] | 1,065 Pa | 205 Pa | 310 ± 140 µM | Slightly cloudy | mins-hours | hours |  | 2000 ± 600 µM |  |  |  |  |  | >1 mth |  |  | 
6 | CH3CO-S-S-R-F-O-W-O-F-E-S-S-NH2 (SSRFXWXFESS; HELM PEPTIDE1{[ac].S.S.R.F.[Orn].W.[Orn].F.E.S.S.[am]}$$$$V2.0; SMILES CC(=O)N[C@@H](CO)C(=O)N[C@@H](CO)C(=O)N[C@@H](CCCNC(=N)N)C(=O)N[C@@H](Cc1ccccc1)C(=O)N[C@@H](CCCN)C(=O)N[C@@H](Cc1c[nH]c2ccccc12)C(=O)N[C@@H](CCCN)C(=O)N[C@@H](Cc1ccccc1)C(=O)N[C@@H](CCC(=O)O)C(=O)N[C@@H](CO)C(=O)N[C@@H](CO)C(N)=O) [Peptide P11-12] | 20,510 Pa | 3067 Pa | 2300 ± 750 µM | Cloudy self- | minutes | minutes |  | 2300 ± 750 µM |  | 7.2 nm | 22,285 kg m^−1s^−2 | ~9° |  |  | forms the stiffest gel | around 1 month | 39.9±9.15%
